Test results: article doi:10.1101/2020.07.17.208231, “UMP inhibition and sequential firing in aspartate transcarbamoylase open ways to regulate plant growth” (bioRxiv, 2020)

Columns and labels:
[1] = target: the molecule itself; assay: SEC-MALS; 400 ul purified protein at 1.4 mg/ml on Superdex 200 10/300 in GF buffer (20 mM Tris pH 7.0, 0.1 M NaCl, 2% glycerol, 0.2 mM TCEP); also the UMP-freed sample and the sample pre-incubated with PALA (Supplementary Fig. 4)
[2] = target: the molecule itself; assay: crystal structure; sitting-drop vapor diffusion at room temperature, PEG 3350 conditions; with UMP, apo, with PALA, with PALA and CP, with CP; molecular replacement with PDB 5G1O

Protein | stoichiometry N [1] | binding result [2]
Arabidopsis aspartate transcarbamoylase, construct spanning aa 82-390 (atATC) (enzyme, Arabidopsis thaliana, UniProt P49077 82-390, looked up, aspartate transcarbamoylase (ATC; pyrB; At3g20330), Arabidopsis thaliana, aa 82-390 of the 390 aa precursor, i.e. without the N-terminal chloroplast transit peptide; Homotrimer; As purified it carries UMP captured during expression; a UMP-freed form was also made; also called WT; recombinant ATC; source: E. coli BLR(DE3)-pLysS, purified (Ni-sepharose, size-exclusion chromatography); not shown: …) FELSDVIEGKQFDREMLSAIFDVAREMEKIEKSSSQSEILKGYLMATLFYEPSTRTRLSFESAMKRLGGEVLTTENAREFSSAAKGETLEDTIRTVEGYSDIIVMRHFESGAARKAAATANIPVINAGDGPGEHPTQALLDVYTIQSEIGKLDGISVALVGDLANGRTVRSLAYLLAKFKDVKIYFVSPEIVKMKDDIKDYLTSSGVEWEESSDLMEVASKCDVVYQTRIQRERFGERLDLYEAARGKYIVDKDLLGVMQKKAIIMHPLPRLDEITADVDADPRAAYFRQAKNGLFIRMALLKLLLVGW | 3 | 
atATC mutant F161A (enzyme, Arabidopsis thaliana, UniProt P49077 82-390, looked up, aspartate transcarbamoylase (ATC; pyrB; At3g20330), Arabidopsis thaliana, aa 82-390 of the 390 aa precursor, with F161A in the CP-loop; Same construct as m1 with the point mutation F161A, made by site-directed mutagenesis; also called atATC-F161A; source: E. coli BLR(DE3)-pLysS, purified (Ni-sepharose, size-exclusion chromatography); not shown: 2.6 kDa fusion tag (from a modified pET28a plasmid)) FELSDVIEGKQFDREMLSAIFDVAREMEKIEKSSSQSEILKGYLMATLFYEPSTRTRLSFESAMKRLGGEVLTTENAREASSAAKGETLEDTIRTVEGYSDIIVMRHFESGAARKAAATANIPVINAGDGPGEHPTQALLDVYTIQSEIGKLDGISVALVGDLANGRTVRSLAYLLAKFKDVKIYFVSPEIVKMKDDIKDYLTSSGVEWEESSDLMEVASKCDVVYQTRIQRERFGERLDLYEAARGKYIVDKDLLGVMQKKAIIMHPLPRLDEITADVDADPRAAYFRQAKNGLFIRMALLKLLLVGW |  | binds
